Measurements from patent publication US20200325237A1 (AVIDITY BIOSCIENCES, published 2020).

Experiments:
[1] = target: hTfR (human transferrin receptor, source and construct not stated) (human, UniProt P02786 89-760, limits assumed); experiment: ELISA; ratio of the Kd on transferrin-captured hTfR to the Kd on directly coated hTfR
In short: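 Human holo-transferrin coated at 500 ng/mL (4 °C overnight) captured hTfR (200 ng/mL, 30 min); comparison plates carried directly coated hTfR. Biotinylated antibodies, 3-fold series from 20 nM (pre-addition), bound 1 h; streptavidin-HRP/TMB, A450 minus A570. Kd from specific binding with Hill slope; shift judged against reference antibody AF2474 with transferrin-overlapping epitope.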

[2] = target: T1, TfR2 (transferrin receptor 2) (UniProt Q9UP52 105-801, limits assumed); experiment: A450 plate assay on TfR2 (method not described in the text)
T1 sequence (looked up): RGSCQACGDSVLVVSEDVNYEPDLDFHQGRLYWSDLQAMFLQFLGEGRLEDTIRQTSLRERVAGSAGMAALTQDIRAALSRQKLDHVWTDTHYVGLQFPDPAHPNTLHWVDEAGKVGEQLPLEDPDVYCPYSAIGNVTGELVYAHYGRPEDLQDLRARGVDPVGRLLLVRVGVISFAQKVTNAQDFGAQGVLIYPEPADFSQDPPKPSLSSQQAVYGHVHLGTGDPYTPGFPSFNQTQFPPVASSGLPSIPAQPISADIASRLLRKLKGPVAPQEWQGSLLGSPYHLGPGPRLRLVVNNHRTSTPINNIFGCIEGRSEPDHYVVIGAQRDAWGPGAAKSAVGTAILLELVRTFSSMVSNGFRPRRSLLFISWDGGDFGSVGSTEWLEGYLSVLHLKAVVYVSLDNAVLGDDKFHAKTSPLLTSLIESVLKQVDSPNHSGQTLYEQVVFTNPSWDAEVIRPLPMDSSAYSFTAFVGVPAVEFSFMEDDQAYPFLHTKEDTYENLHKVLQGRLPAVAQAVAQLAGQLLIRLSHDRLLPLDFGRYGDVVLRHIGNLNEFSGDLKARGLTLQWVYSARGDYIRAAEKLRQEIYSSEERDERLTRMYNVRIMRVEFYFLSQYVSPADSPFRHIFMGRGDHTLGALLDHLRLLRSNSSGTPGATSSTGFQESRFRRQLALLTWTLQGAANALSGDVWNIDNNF

Chain of hTfR (human transferrin receptor, source and construct not stated) (P02786 89-760 limits assumed): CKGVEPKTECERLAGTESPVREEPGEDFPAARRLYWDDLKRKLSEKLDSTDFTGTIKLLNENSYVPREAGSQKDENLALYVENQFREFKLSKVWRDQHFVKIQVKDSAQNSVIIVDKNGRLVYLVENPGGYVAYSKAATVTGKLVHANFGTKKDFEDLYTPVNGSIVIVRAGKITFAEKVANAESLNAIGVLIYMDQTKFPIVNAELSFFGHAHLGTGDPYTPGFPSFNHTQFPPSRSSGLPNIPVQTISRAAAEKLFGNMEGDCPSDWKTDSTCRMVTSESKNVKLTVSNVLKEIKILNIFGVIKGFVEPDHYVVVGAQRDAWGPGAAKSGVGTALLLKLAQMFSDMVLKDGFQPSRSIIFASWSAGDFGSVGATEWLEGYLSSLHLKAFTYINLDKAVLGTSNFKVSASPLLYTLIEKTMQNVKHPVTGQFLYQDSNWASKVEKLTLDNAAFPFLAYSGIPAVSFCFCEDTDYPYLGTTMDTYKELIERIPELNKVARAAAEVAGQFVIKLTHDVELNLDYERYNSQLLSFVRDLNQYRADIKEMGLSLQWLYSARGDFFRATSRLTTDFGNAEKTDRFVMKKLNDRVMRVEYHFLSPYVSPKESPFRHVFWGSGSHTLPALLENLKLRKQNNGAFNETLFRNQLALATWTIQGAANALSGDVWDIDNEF

Kd(Tf+TfR)/Kd(TfR) [1]: 3.1
binding result [2]: no binding (tested: 1000 nM)
B1: 13E4_WT (parent chimeric anti-TfR antibody) (antibody, V domains shown)
VH: QVQLQQPGAELVKPGASVKLSCKASGYTFTNYWMHWVKQRPGQGLEWIGEINPINGRSNYGERFKTKATLTVDKSSSTAYMQLSSLTSEDSAVYYCARGTRAMHYWGQGTSVTVSS
VL: DIQMTQSPASLSVSVGETVTITCRTSENIYNNLAWYQQKQGKSPQLLVYAATNLADGVPSRFSGSGSGTQYSLKINSLQSEDFGNYYCQHFWGTPLTFGAGTKLELK
notes: also called 13E4_WT 1st; 13E4_WT 2nd
